# According to the supplement of paper PMC10126150:
# ± gives the standard deviation of the averaged measurements.
# Tested on: ATP
# Assay: switch fluorescence ratio, 500 uM ATP over buffer (Cy3 cluster intensity, sum of 5 cycles each) (fold (ratio)); higher = stronger signal-on switching upon ATP binding; sequences stand for … in TCGTCGGCAGCGTCAGATGTGTATAAGAGACAGTTTTTTTTTTTTTTTTTTTTTTTTT…TC
# Conditions: aptamer strand: ATP DNA aptamer (quencher-CACCTGGGGGAGTATTGCGGAGGAAGG + anchor), 100 nM annealed; ATP concentration: 500 uM
# In short: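 Switching-strand clusters labelled with Cy3 on a modified Illumina MiSeq flow-cell were annealed to 100 nM quencher-labelled ATP aptamer, imaged in selection buffer, and re-imaged after 15 min with 500 uM ATP at 22 °C. This was done over five cycles with NaOH stripping and re-annealing in between. The fluorescence ratio is summed target-cycle over summed buffer-cycle Cy3 intensity per cluster, averaged per switch-domain sequence, excluding clusters outside 100-1000 RFU.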
# 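Also: ATP exposure 15 min at 22 °C before imaging.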
row,Sequence,switch fluorescence ratio
1,CGGATGCATG,1.02 ± 0.046
2,CGGATGGTGT,0.97 ± 0.029
3,CGGATTAATT,0.9862 ± 0.0024
4,CGGATTCGGA,1.012 ± 0.01
5,CGGATTGAAG,1.007 ± 0.0092
6,CGGATTTTAT,1.02 ± 0.035
7,CGGCAAGTAT,1.063 ± 0.0089
8,CGGCAGCGAG,1.078 ± 0.0015
9,CGGCAGGCAC,1.21 ± 0.037
10,CGGCAGTTCG,0.979 ± 0.014
11,CGGCATATAG,1.99 ± 0.2
12,CGGCATTCAA,0.9989 ± 0.0057
13,CGGCCATTCG,0.982 ± 0.021
14,CGGCCGAACT,1.033 ± 0.0064
15,CGGCCGAGGT,1.02 ± 0.02
16,CGGCCGGACT,1.01 ± 0.047
17,CGGCCGGGGT,1.035 ± 0.0058
18,CGGCCGTTCG,1.1 ± 0.14
19,CGGCCTACAG,1.05 ± 0.028
20,CGGCCTCTGC,1.15 ± 0.091
21,CGGCCTGCG,1.02 ± 0.1
22,CGGCCTTGGT,1.01 ± 0.044
23,CGGCGCTTCT,1.1 ± 0.028
24,CGGCGGCGGG,1.03 ± 0.015
25,CGGCGGGCAA,1.81 ± 0.69
26,CGGCGGGGAA,0.9757 ± 0.00091

row,Sequence,switch fluorescence ratio
1,CGGCTGACGA,1.03 ± 0.041
2,CGGCTGGCTT,1 ± 0.033
3,CGGCTGTGTG,0.974 ± 0.02
4,CGGGAAATTG,0.9893 ± 0.0035
5,CGGGAACATT,1.01 ± 0.017
6,CGGGAAGGAG,0.9685 ± 0.0053
7,CGGGACGCGA,1.28 ± 0.043
8,CGGGACGGGG,0.967 ± 0.022
9,CGGGACTTGT,0.952 ± 0.067
10,CGGGAGACAT,1.01 ± 0.014
11,CGGGAGACGG,1.31 ± 0.26
12,CGGGAGGGAA,1.02 ± 0.023
13,CGGGAGGGGA,1 ± 0.025
14,CGGGAGTGCG,1.02 ± 0.024
15,CGGGATAGTA,0.994 ± 0.041
16,CGGGATCATT,0.958 ± 0.017
17,CGGGATGGCC,1 ± 0.018
18,CGGGATGTAG,0.987 ± 0.026
19,CGGGATTGGT,1.01 ± 0.13
20,CGGGCAAGGG,1.19 ± 0.029
21,CGGGCAATCA,1.58 ± 0.11
22,CGGGCACGTG,0.946 ± 0.021
23,CGGGCAGAGG,0.993 ± 0.01
24,CGGGCAGCTG,1.04 ± 0.048
25,CGGGCAGGGC,1.04 ± 0.019
26,CGGGCCCGTA,0.961 ± 0.094

row,Sequence,switch fluorescence ratio
1,CGGGCCGACT,1.01 ± 0.039
2,CGGGCCTCCG,1.152 ± 0.0046
3,CGGGCGAATT,0.982 ± 0.014
4,CGGGCGATGG,1.08 ± 0.017
5,CGGGCGCACT,1.06 ± 0.037
6,CGGGCGCTGA,0.9837 ± 0.004
7,CGGGCGGCGG,0.9921 ± 0.0076
8,CGGGCTCAAC,1.033 ± 0.0071
9,CGGGCTGAAT,0.987 ± 0.025
10,CGGGCTGGAA,1.004 ± 0.0086
11,CGGGCTGTTT,0.977 ± 0.013
12,CGGGCTTAAA,1 ± 0.018
13,CGGGGAAGGA,1.016 ± 0.006
14,CGGGGAAGGC,1.13 ± 0.065
15,CGGGGAATAG,1.16 ± 0.094
16,CGGGGAGGCG,0.982 ± 0.079
17,CGGGGAGGGC,1.04 ± 0.071
18,CGGGGAGTGT,1 ± 0.043
19,CGGGGCATAT,1.13 ± 0.085
20,CGGGGCCTAG,1.01 ± 0.058
21,CGGGGCGCGA,1.1 ± 0.049
22,CGGGGCGGCA,0.998 ± 0.032
23,CGGGGCGTCA,0.978 ± 0.032
24,CGGGGCTAGG,0.992 ± 0.017
25,CGGGGCTCCT,0.995 ± 0.036
26,CGGGGCTGGA,0.984 ± 0.017

row,Sequence,switch fluorescence ratio
1,CGGGGGAAAC,0.977 ± 0.015
2,CGGGGGACT,1.61 ± 0.85
3,CGGGGGAGAG,0.9847 ± 0.009
4,CGGGGGATAG,1.06 ± 0.074
5,CGGGGGATCC,1.13 ± 0.16
6,CGGGGGATCT,1.01 ± 0.038
7,CGGGGGCAGT,1.006 ± 0.0067
8,CGGGGGCTCC,1.02 ± 0.021
9,CGGGGGCTT,1.002 ± 0.0044
10,CGGGGGGATC,1.02 ± 0.058
11,CGGGGGGCGG,0.986 ± 0.032
12,CGGGGGGGGT,1.01 ± 0.031
13,CGGGGGGTTC,1 ± 0.019
14,CGGGGGTGGG,1.01 ± 0.047
15,CGGGGGTTAT,1.03 ± 0.063
16,CGGGGTAAGG,0.988 ± 0.024
17,CGGGGTAGGT,0.984 ± 0.027
18,CGGGGTCCTC,1.01 ± 0.018
19,CGGGGTCGTG,0.9904 ± 0.0035
20,CGGGGTGAAC,0.994 ± 0.038
21,CGGGGTGCCG,0.98847 ± 0.00081
22,CGGGGTGCGG,1 ± 0.056
23,CGGGGTGGCT,0.977 ± 0.16
24,CGGGGTGGTT,1.01 ± 0.038
25,CGGGGTTAAG,0.975 ± 0.025
26,CGGGGTTCTT,1.02 ± 0.031

row,Sequence,switch fluorescence ratio
1,CGGGGTTGAC,0.9924 ± 0.0098
2,CGGGGTTGCC,0.955 ± 0.022
3,CGGGGTTTAG,0.992 ± 0.051
4,CGGGTAAACG,0.964 ± 0.079
5,CGGGTAAATA,1.011 ± 0.0084
6,CGGGTAAGTC,0.995 ± 0.01
7,CGGGTAATCT,1.5 ± 0.61
8,CGGGTACCGC,1.05 ± 0.053
9,CGGGTACGGT,0.992 ± 0.022
10,CGGGTAGAAG,0.971 ± 0.046
11,CGGGTAGGCT,1.02 ± 0.057
12,CGGGTAGGTG,1.03 ± 0.058
13,CGGGTAGTGC,1.028 ± 0.0078
14,CGGGTAGTTG,0.995 ± 0.014
15,CGGGTATGGT,1 ± 0.027
16,CGGGTATTGC,1.03 ± 0.011
17,CGGGTATTTC,1.01 ± 0.014
18,CGGGTCGGCC,0.997 ± 0.025
19,CGGGTCGGGA,0.995 ± 0.041
20,CGGGTCGTGG,0.996 ± 0.024
21,CGGGTCTTGT,0.98864 ± 0.00032
22,CGGGTGAGGG,1.017 ± 0.0065
23,CGGGTGATCG,0.96 ± 0.043
24,CGGGTGGGAT,1.006 ± 0.0035
25,CGGGTGGTAT,0.991 ± 0.023
26,CGGGTGGTTA,1.01 ± 0.022

row,Sequence,switch fluorescence ratio
1,CGGGTGTGTG,0.981 ± 0.019
2,CGGGTTAATG,0.986 ± 0.019
3,CGGGTTCCGA,0.998 ± 0.024
4,CGGGTTCGAG,0.959 ± 0.001
5,CGGGTTCTTT,1.03 ± 0.11
6,CGGGTTGGAA,0.9731 ± 0.0091
7,CGGGTTGGGT,1.01 ± 0.049
8,CGGGTTTCAC,1 ± 0.003
9,CGGGTTTGCG,0.992 ± 0.036
10,CGGGTTTGGT,1.01 ± 0.011
11,CGGGTTTTGG,1.01 ± 0.034
12,CGGGTTTTTC,0.972 ± 0.028
13,CGGGTTTTTG,0.994 ± 0.03
14,CGGTAACAAA,1.01 ± 0.019
15,CGGTACTCGA,0.993 ± 0.015
16,CGGTAGCTTG,1 ± 0.019
17,CGGTAGGATG,0.971 ± 0.011
18,CGGTAGGATT,1.04 ± 0.014
19,CGGTAGGTGC,0.976 ± 0.063
20,CGGTATATGG,0.962 ± 0.013
21,CGGTATGTGA,0.985 ± 0.041
22,CGGTATTCTG,1.01 ± 0.052
23,CGGTCAAAAA,1.03 ± 0.033
